The values below come from patent US11034757B2, “Combination therapies using agents that target tumor-associated stroma or tumor cells and tumor vasculature” (BIOMED VALLEY DISCOVERIES, INC., priority 2014, dated 2021).

One test has as its system UACC melanoma cells. Put plainly: TEM8 antibody efficacy in UACC melanoma model. The test is classed as in vivo, mouse. Conditions: 15 mg/kg, 3 times per week for 3-4 weeks; start at 50 mm^3. How it is done: UACC melanoma cells were cultured and injected subcutaneously into mice. Treatment was initiated with a tumor volume of 50 mm^3, and treatment groups consisted of one of four TEM8 antibodies (M825, M830, M863, and M822), each dosed at 15 mg/kg, 3 times per week for 3-4 weeks.

The test system of test [1] is H460 non-small cell lung carcinoma xenograft. Put plainly: M830 in the H460 non-small cell lung carcinoma xenograft model. The class given is in vivo, mouse. Conditions: combination partner Paclitaxel. How it is done:
Tumor cells were cultured in RPMI-1640 medium supplemented with 10% fetal bovine serum, 2 mM glutamine, 100 units/mL penicillin G sodium, 100 μg/mL streptomycin sulfate, and 25 μg/mL gentamicin. The tumor cells were grown in tissue culture flasks in a humidified incubator at 37° C., in an atmosphere of 5% CO2 and 95% air.
Criteria for Regression Responses
Animals were monitored for regression responses.
The statistical tests were not adjusted for multiple comparisons.
Cultured H460 cells were harvested during exponential growth and resuspended in phosphate buffered saline at a concentration of 1×10^8 cells/mL. 1.0×10^7 tumor cells were injected subcutaneously into the flank of athymic nude mice. Animals were euthanized when tumors reached the pre-determined volume endpoint of 2000 mm^3 or on the final day (Day 88), whichever came first. […] Each treatment produced a significant survival difference versus controls (P<0.01). The median TTE for controls was 22.8 days, establishing a maximum possible TGD of 65.2 days (286%) for the 88-day study.

Test [2] has as its system MC38 colon carcinoma liver metastasis. Put plainly: M830 in MC38 colon carcinoma liver metastasis model. The class given is in vivo, C57BL/6 mice. From the text:
C57BL/6 mice were challenged with MC38 colon carcinoma liver metastasis by intrasplenic injections of cultured cells.

B1: M830: anti-TEM8 monoclonal antibody (hIgG1); VH SEQ ID NO:5, VL SEQ ID NO:6 (antibody, V domains shown)
VH: EVQLVESGGGVVQPGRSVRLSCAASGFTFSTYTMHWVRQAPGKGLEWVAIISNDGSNKYYADPVRGRFTISRDNSKNTLYLQMNSLRAEDTAVYYCVRGSSWYRGNWFDPWGQGTLVTVSS
VL: DIQMTQSPSSLSASVGDRVTIACRASQTISRYLNWYQQKPGKAPKLLIYAASSLQSGVSSRFSGSGSGTEFTLTISSLQPEDFATYFCQQTYSPPITFGQGTRLEIKR
modifications: TEM830 mAb VH; TEM830 mAb VL
For B1, the “effect on tumor growth in the UACC melanoma model” value in the test with UACC melanoma cells is listed as “effective at slowing tumor growth”. In test [1], the “regression (at Day 21, vs. vehicle column)” value is reported as “(−61%”. Moreover, the effect on survival result in test [2] (P=0.0001) is listed as “significantly improved the survival”. For the same molecule, the median survival in test [2] (vehicle 11 days) is 17 days.
